From the Human Domainome abundance scans (Beltran et al. 2025) come the findings set out here.

Sequences and labels used below:
B1: V(D)J recombination-activating protein 2, residues 415 to 491; numbered along this chain, P55895 (parent)
chain: YWITCCPTCDVDINTWVPFYSTELNKPAMIYCSHGDGHWVHAQCMDLAERTLIHLSAGSNKYYCNEHVEIARALHTP

± gives the uncertainty stated by the source.

In this series the parent is B1. The experiment in a line: abundance fitness (aPCA) (normalised: wild type 0, dead -1); higher = more abundant; growth selection in yeast, the domain comes from the species named. The following applies: Homo sapiens.
Turning to YWITCCPTCDVDINTWVPFYMTELNKPAMIYCSHGDGHWVHAQCMDLAERTLIHLSAGSNKYYCNEHVEIARALHTP, the abundance fitness is -0.321 ± 0.44.

For YWITCCPTCDVDINTWVPFYCTELNKPAMIYCSHGDGHWVHAQCMDLAERTLIHLSAGSNKYYCNEHVEIARALHTP, the abundance fitness amounted to 0.015 ± 0.16.

With YWITCCPTCDVDINTWVPFYDTELNKPAMIYCSHGDGHWVHAQCMDLAERTLIHLSAGSNKYYCNEHVEIARALHTP, the abundance fitness is -0.17 ± 0.26.

In the case of YWITCCPTCDVDINTWVPFYYTELNKPAMIYCSHGDGHWVHAQCMDLAERTLIHLSAGSNKYYCNEHVEIARALHTP, the abundance fitness is -0.027 ± 0.21.

For YWITCCPTCDVDINTWVPFYVTELNKPAMIYCSHGDGHWVHAQCMDLAERTLIHLSAGSNKYYCNEHVEIARALHTP, the abundance fitness is -0.28 ± 0.12.

Turning to YWITCCPTCDVDINTWVPFYWTELNKPAMIYCSHGDGHWVHAQCMDLAERTLIHLSAGSNKYYCNEHVEIARALHTP, the abundance fitness was -0.443 ± 0.19.

As for YWITCCPTCDVDINTWVPFYPTELNKPAMIYCSHGDGHWVHAQCMDLAERTLIHLSAGSNKYYCNEHVEIARALHTP, the abundance fitness was -0.004 ± 0.12.

Take YWITCCPTCDVDINTWVPFYFTELNKPAMIYCSHGDGHWVHAQCMDLAERTLIHLSAGSNKYYCNEHVEIARALHTP: the abundance fitness is -0.154 ± 0.14.

Turning to YWITCCPTCDVDINTWVPFYETELNKPAMIYCSHGDGHWVHAQCMDLAERTLIHLSAGSNKYYCNEHVEIARALHTP, the abundance fitness stood at 0.119 ± 0.17.

Turning to YWITCCPTCDVDINTWVPFYTTELNKPAMIYCSHGDGHWVHAQCMDLAERTLIHLSAGSNKYYCNEHVEIARALHTP, the abundance fitness is -0.321 ± 0.12.

As for YWITCCPTCDVDINTWRPFYSTELNKPAMIYCSHGDGHWVHAQCMDLAERTLIHLSAGSNKYYCNEHVEIARALHTP, the abundance fitness is -0.022 ± 0.13.

For YWITCCPTCDVDINTWSPFYSTELNKPAMIYCSHGDGHWVHAQCMDLAERTLIHLSAGSNKYYCNEHVEIARALHTP, the abundance fitness was -0.01 ± 0.2.

Take YWITCCPTCDVDINTWQPFYSTELNKPAMIYCSHGDGHWVHAQCMDLAERTLIHLSAGSNKYYCNEHVEIARALHTP: the abundance fitness is 0.074 ± 0.19.

YWITCCPTCDVDINTWIPFYSTELNKPAMIYCSHGDGHWVHAQCMDLAERTLIHLSAGSNKYYCNEHVEIARALHTP: the abundance fitness was -0.153 ± 0.2.

In the case of YWITCCPTCDVDINTWNPFYSTELNKPAMIYCSHGDGHWVHAQCMDLAERTLIHLSAGSNKYYCNEHVEIARALHTP, the abundance fitness was -0.687 ± 0.44.

In the case of YWITCCPTCDVDINTWEPFYSTELNKPAMIYCSHGDGHWVHAQCMDLAERTLIHLSAGSNKYYCNEHVEIARALHTP, the abundance fitness came out at 0.046 ± 0.33.

Take YWITCCPTCDVDINTWWPFYSTELNKPAMIYCSHGDGHWVHAQCMDLAERTLIHLSAGSNKYYCNEHVEIARALHTP: the abundance fitness is -0.117 ± 0.15.

YWITCCPTCDVDINTWFPFYSTELNKPAMIYCSHGDGHWVHAQCMDLAERTLIHLSAGSNKYYCNEHVEIARALHTP: the abundance fitness is 0.109 ± 0.23.

Consider YWITCCPTCDVDINTWPPFYSTELNKPAMIYCSHGDGHWVHAQCMDLAERTLIHLSAGSNKYYCNEHVEIARALHTP, for which the abundance fitness is -0.375 ± 0.49.

Regarding YWITCCPTCDVDINTWMPFYSTELNKPAMIYCSHGDGHWVHAQCMDLAERTLIHLSAGSNKYYCNEHVEIARALHTP, the abundance fitness is -0.105 ± 0.25.

On to YWITCCPTCDVDINTWLPFYSTELNKPAMIYCSHGDGHWVHAQCMDLAERTLIHLSAGSNKYYCNEHVEIARALHTP, for which the abundance fitness was -0.056 ± 0.11.

As for YWITCCPTCDVDINTWVPFYSCELNKPAMIYCSHGDGHWVHAQCMDLAERTLIHLSAGSNKYYCNEHVEIARALHTP, the abundance fitness was -0.131 ± 0.34.

Turning to YWITCCPTCDVDINTWVPFYSHELNKPAMIYCSHGDGHWVHAQCMDLAERTLIHLSAGSNKYYCNEHVEIARALHTP, the abundance fitness was 0.216 ± 0.46.

As to YWITCCPTCDVDINTWVPFYSDELNKPAMIYCSHGDGHWVHAQCMDLAERTLIHLSAGSNKYYCNEHVEIARALHTP, the abundance fitness is -0.121 ± 0.39.

With YWITCCPTCDVDINTWVPFYSFELNKPAMIYCSHGDGHWVHAQCMDLAERTLIHLSAGSNKYYCNEHVEIARALHTP, the abundance fitness was -0.181 ± 0.16.

Take YWITCCPTCDVDINTWVPFYSGELNKPAMIYCSHGDGHWVHAQCMDLAERTLIHLSAGSNKYYCNEHVEIARALHTP: the abundance fitness was -0.353 ± 0.17.

In the case of YWITCCPTCDVDINTWVPFYSAELNKPAMIYCSHGDGHWVHAQCMDLAERTLIHLSAGSNKYYCNEHVEIARALHTP, the abundance fitness was -0.157 ± 0.41.

Take YWITCCPTCDVDINTWVPFVSTELNKPAMIYCSHGDGHWVHAQCMDLAERTLIHLSAGSNKYYCNEHVEIARALHTP: the abundance fitness is -0.719 ± 0.29.

As for YWITCCPTCDVDINTWVPFASTELNKPAMIYCSHGDGHWVHAQCMDLAERTLIHLSAGSNKYYCNEHVEIARALHTP, the abundance fitness is -0.539 ± 0.35.

In the case of YWITCCPTCDVDINTWVPFNSTELNKPAMIYCSHGDGHWVHAQCMDLAERTLIHLSAGSNKYYCNEHVEIARALHTP, the abundance fitness was -0.09 ± 0.25.

With YWITCCPTCDVDINTWVPFGSTELNKPAMIYCSHGDGHWVHAQCMDLAERTLIHLSAGSNKYYCNEHVEIARALHTP, the abundance fitness was -0.28 ± 0.15.

Regarding YWITCCPTCDVDINTWVPFPSTELNKPAMIYCSHGDGHWVHAQCMDLAERTLIHLSAGSNKYYCNEHVEIARALHTP, the abundance fitness is -0.378 ± 0.26.

YWITCCPTCDVDINTWVPFSSTELNKPAMIYCSHGDGHWVHAQCMDLAERTLIHLSAGSNKYYCNEHVEIARALHTP: the abundance fitness is -0.513 ± 0.14.

Regarding YWITCCPTCDVDINTWVPFESTELNKPAMIYCSHGDGHWVHAQCMDLAERTLIHLSAGSNKYYCNEHVEIARALHTP, the abundance fitness was -0.576 ± 0.3.

Take YWITCCPTCDVDINTWVPFMSTELNKPAMIYCSHGDGHWVHAQCMDLAERTLIHLSAGSNKYYCNEHVEIARALHTP: the abundance fitness was -0.383 ± 0.27.

Regarding YWITCCPTCDVDINTWVPFDSTELNKPAMIYCSHGDGHWVHAQCMDLAERTLIHLSAGSNKYYCNEHVEIARALHTP, the abundance fitness is -0.525 ± 0.26.
